Measurements from US20190255165A1 (AMAL THERAPEUTICS, published 2019).

How the values were obtained:
human TLR2 = target: T1, human TLR2 (human, UniProt O60603 21-784); assay: inferred from HEK-Blue hTLR2 reporter cells (QuantiBlue OD and IL-8 ELISA)
T1 construct: whole, on cells; Presented on HEK-Blue hTLR2 reporter cells; also called hTLR2

human TLR4 = target: T2, human TLR4 (human, UniProt O00206 24-839); assay: inferred from IL-8 secretion (ELISA) of HEK-hTLR4 cells, 1 µM
T2 construct: whole, on cells; Presented on HEK-hTLR4 cells; also called hTLR4
T2 sequence (O00206 24-839): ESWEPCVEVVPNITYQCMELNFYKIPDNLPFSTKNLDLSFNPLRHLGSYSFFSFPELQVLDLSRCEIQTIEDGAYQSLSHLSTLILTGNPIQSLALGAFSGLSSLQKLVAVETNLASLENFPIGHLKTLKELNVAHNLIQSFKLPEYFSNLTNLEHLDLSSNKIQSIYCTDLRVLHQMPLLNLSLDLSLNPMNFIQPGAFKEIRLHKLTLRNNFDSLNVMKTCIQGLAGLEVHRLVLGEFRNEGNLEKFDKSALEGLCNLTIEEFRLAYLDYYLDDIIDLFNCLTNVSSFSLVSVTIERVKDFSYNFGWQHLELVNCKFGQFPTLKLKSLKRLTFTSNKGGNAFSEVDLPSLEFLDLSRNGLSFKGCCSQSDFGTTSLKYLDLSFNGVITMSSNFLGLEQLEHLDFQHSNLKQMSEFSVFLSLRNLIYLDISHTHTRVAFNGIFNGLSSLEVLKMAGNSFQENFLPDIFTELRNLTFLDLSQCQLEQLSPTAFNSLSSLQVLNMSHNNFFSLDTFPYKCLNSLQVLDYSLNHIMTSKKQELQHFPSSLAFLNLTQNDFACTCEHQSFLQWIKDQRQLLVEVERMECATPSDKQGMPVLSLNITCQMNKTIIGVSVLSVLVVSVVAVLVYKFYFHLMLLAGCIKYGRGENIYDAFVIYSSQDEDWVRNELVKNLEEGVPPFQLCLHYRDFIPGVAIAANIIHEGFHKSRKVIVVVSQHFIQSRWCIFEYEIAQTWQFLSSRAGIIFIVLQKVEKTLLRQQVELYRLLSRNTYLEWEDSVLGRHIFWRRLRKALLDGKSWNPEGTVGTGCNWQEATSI

T1 sequence (O60603 21-784): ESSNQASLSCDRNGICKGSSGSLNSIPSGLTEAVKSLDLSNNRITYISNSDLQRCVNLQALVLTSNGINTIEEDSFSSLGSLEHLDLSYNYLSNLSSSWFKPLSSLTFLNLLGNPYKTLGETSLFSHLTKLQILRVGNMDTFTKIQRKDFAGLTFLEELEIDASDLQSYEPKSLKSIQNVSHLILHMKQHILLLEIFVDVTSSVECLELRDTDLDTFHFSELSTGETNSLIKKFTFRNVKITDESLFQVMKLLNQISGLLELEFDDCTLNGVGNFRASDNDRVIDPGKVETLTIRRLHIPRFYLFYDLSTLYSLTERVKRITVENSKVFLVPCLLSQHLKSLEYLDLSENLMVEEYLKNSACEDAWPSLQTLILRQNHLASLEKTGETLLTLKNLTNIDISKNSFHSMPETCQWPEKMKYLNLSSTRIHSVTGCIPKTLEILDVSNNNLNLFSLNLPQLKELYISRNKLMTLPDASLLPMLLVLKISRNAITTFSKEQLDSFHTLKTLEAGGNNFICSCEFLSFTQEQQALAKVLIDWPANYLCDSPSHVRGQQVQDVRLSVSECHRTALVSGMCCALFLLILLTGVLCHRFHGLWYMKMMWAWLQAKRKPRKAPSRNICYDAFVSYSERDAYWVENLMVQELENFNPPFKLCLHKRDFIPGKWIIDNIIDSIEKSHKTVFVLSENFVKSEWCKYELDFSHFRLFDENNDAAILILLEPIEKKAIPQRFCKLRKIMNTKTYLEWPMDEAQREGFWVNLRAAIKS

Binder	binding result (human TLR2)	binding result (human TLR4)
Z13Mad5Anaxa (other, Recombinant fusion protein with N-terminal MHHHHHH; 18973 Da; also called fusion protein of cell-penetrating peptide Z13, MAD5 cargo and TLR peptide agonist Anaxa (C-terminal)) MHHHHHHKRYKNRVASRKSRAKFKQLLQHYREVAAAKSSENDRLRLLLKESLKISQAVHAAHAEINEAGREVVGVGALKVPRNQDWLGVPRFAKFASFEAQGALANIAVDKANLDVEQLESIINFEKLTEWTGSSTVHEILCKLSLEGDHSTPPSAYGSVKPYTNFDAE	binds	binds
AnaxaZ13Mad5 (other, Recombinant fusion protein with N-terminal MHHHHHH; 18973 Da; also called AnaxZ13Mad5; fusion protein with Anaxa at the N-terminal position, Z13 and MAD5 cargo) MHHHHHHSTVHEILCKLSLEGDHSTPPSAYGSVKPYTNFDAEKRYKNRVASRKSRAKFKQLLQHYREVAAAKSSENDRLRLLLKESLKISQAVHAAHAEINEAGREVVGVGALKVPRNQDWLGVPRFAKFASFEAQGALANIAVDKANLDVEQLESIINFEKLTEWTGS	binds	–
EDAZ13Mad5 (other, Recombinant fusion protein with N-terminal MHHHHHH; 25,057 Da; also called fusion protein of TLR4 peptide agonist EDA (N-terminal), Z13 and MAD5 cargo) MHHHHHHNIDRPKGLAFTDVDVDSIKIAWESPQGQVSRYRVTYSSPEDGIRELFPAPDGEDDTAELQGLRPGSEYTVSVVALHDDMESQPLIGIQSTKRYKNRVASRKSRAKFKQLLQHYREVAAAKSSENDRLRLLLKESLKISQAVHAAHAEINEAGREVVGVGALKVPRNQDWLGVPRFAKFASFEAQGALANIAVDKANLDVEQLESIINFEKLTEWTGS	–	binds
